Test results taken from patent publication US9193963B2, “Mutant endoglucanase” (Toray Industries, Inc., priority 2011, dated 2015).
Substitutions are numbered along the chain they refer to.

B1: EGIa1 Mutant: mutant EGIa1, SEQ ID NO: 8; residue corresponding to 273rd tryptophan substituted with alanine (protein)
chain: MNFFVKNGEIYKLDGATGKPKIIYLFGVNWFGFETRDYVVHGLWARNWVDMLQQIKSLGFNAIRLPFCTYSVQEGTMPNSNAINYNINPDLQGLTSIEIMEKIVAKANELGIYILLDYHRLGCDQIEPLWYSDQVSEQQFIDTWVSVAKRFAKYPNVIGADIRNEPWGATWGTDDPATDWRLAVEKVAPKILEVAPHWLIFVEGTYKTRPDIDERSWYPYYSYYVFAGENLRAVRYYPVRLPYEKIVYSPHTYGPDVFRQPYFDDPIFPENMRSIWMERFGYVKTELGYALVVGEFGGRYGHGGDPRDIIWQIKFVDWLIENRICNFFYWSWNANSGDTGGILKDDWTNIWEDKYQNLKRLMDYCSSIN
modifications: Ignisphaera aggregans EGIa1 W227A
notes: residue corresponding to 273rd tryptophan substituted with alanine
B2: EGIa2 Wild-type: Ignisphaera aggregans-derived endoglucanase 2, SEQ ID NO: 13, parent endoglucanase (protein)
chain: MYREKSCGSTIMDVYYRARGTEIYIERKGVEKPLYIFGINWAGFEWRGRVVGGLHVRNWVEILQQIKSLGFNAIRIPFCAESVKPGVFPAPRTINYALNRDLIGLDSISIMEKIIAKAAELELYILLCFHNISCLIMEPLWYTPLFSEQQFIDTWIRVAKRFSRYWNVIGAELYNNPHGRLPPSYYYESGECATWGMGNPKTDWNLAAERIGRAVLEVAPHWLIIVKGTQLTNPRSDNVPLYPEATYWGENLRAVRDYPVNLPRDKLVYGVDIYGPDVYYMPYFNDPNIFPDKLYLIWDQNWGYVKKELGYPLIIAEFGGLYGRGDPRDVIWHQKLVEYMISNNICHWFYNALNPDNPSTAGLLENDWRTVREDKMALLRRAMDYCRERYGNI
modifications: Ignisphaera aggregans EGIa2
B3: EGIa2 Mutant: mutant EgIa2, SEQ ID NO: 14; residue corresponding to 273rd tryptophan substituted with alanine (protein)
chain: B2 chain with W248A
modifications: Ignisphaera aggregans EGla2 W248A
notes: as for B1

Assays:
[1] = Saccharification of lignocellulose 2 with Trichoderma reesei culture solution and endoglucanase; assay type: biochemical, Rice straw; settings: Lignocellulose 2, 24 hours; cellulase 1.0 mg/mL + endoglucanase 0.1 mg/mL + β-glucosidase (Novozyme 188) 0.01 mg/mL
Procedure, shortened: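 Dilute-sulfuric-acid-autoclaved rice straw (pH ~5) suspended at 5 wt % in 50 mM acetate pH 5.2, hydrolysed 24 h at 50 °C. Enzymes: T. reesei culture solution 1.0 mg/mL, mutant or wild-type endoglucanase 0.1 mg/mL, β-glucosidase 0.01 mg/mL. Glucose released was measured.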

[2] = Activity to degrade phosphoric acid swollen cellulose; assay type: biochemical; settings: 1% phosphoric acid swollen cellulose, pH 5.2, enzyme 0.5 μM, 1 hour, 50° C.; glucose generated by each parent endoglucanase = 100%
Procedure, shortened: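 Enzyme added to phosphoric acid swollen cellulose in 50 mM acetate buffer, pH 5.2; 1 h reaction at 30–85 °C, stopped by pH change if needed. Glucose released measured by glucose kit; activity expressed relative to parent endoglucanase set at 100%.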

[3] = Inhibition experiment with ferulic acid: degradation of phosphoric acid swollen cellulose; assay type: biochemical; settings: enzyme 0.5 μM, 1 hour, 50° C., parent at 0 mM = 100%
[4] = Inhibition experiment with vanillin: degradation of phosphoric acid swollen cellulose; assay type: biochemical; settings: enzyme 0.5 μM, 1 hour, 50° C., parent at 0 mM = 100%
[5] = Saccharification of lignocellulose 2 with Celluclast and endoglucanase; assay type: biochemical, Rice straw; settings: 5 wt % Lignocellulose 2, pH 5.2, 50° C., 24 hours; 1.0 mg/mL cellulase + 0.1 mg/mL endoglucanase
Procedure, shortened: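 Dilute-sulfuric-acid-pretreated rice straw (10 wt% solids, pH ~5) suspended at 5 wt% in 50 mM acetate buffer pH 5.2 was digested 24 h at 50 °C with 1.0 mg/mL Trichoderma reesei Celluclast plus 0.1 mg/mL mutant or wild-type endoglucanase; glucose released was measured.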

[6] = Saccharification of lignocellulose 3 with Celluclast and endoglucanase; assay type: biochemical, Rice straw; settings: 5 wt % Lignocellulose 3, pH 5.2, 50° C., 24 hours; 1.0 mg/mL cellulase + 0.1 mg/mL endoglucanase
Procedure, shortened: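 Hydrothermally pretreated rice straw (180° C., 20 min) at 5 wt % in 50 mM acetate buffer pH 5.2 digested at 50° C. for 24 h with Celluclast 1.0 mg/mL plus mutant or wild-type endoglucanase 0.1 mg/mL. Released glucose measured over time.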

[7] = Saccharification of lignocellulose 1 with Celluclast and endoglucanase; assay type: biochemical, Rice straw; settings: 5 wt % Lignocellulose 1, pH 5.2, 50° C., 24 hours; 1.0 mg/mL cellulase + 0.1 mg/mL endoglucanase
Procedure, shortened: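 Rice straw pretreated with liquid ammonia (15 min room temperature, then 1 h at 150° C), suspended at 5 wt % in 50 mM acetate pH5.2. Hydrolysed at 50° C for 24 h with 1.0 mg/mL Trichoderma reesei cellulase plus 0.1 mg/mL mutant or wild-type endoglucanase; glucose measured.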

[8] = Saccharification of lignocellulose 3 with Trichoderma reesei culture solution and endoglucanase; assay type: biochemical, Rice straw; settings: Lignocellulose 3, 24 hours; cellulase 1.0 mg/mL + endoglucanase 0.1 mg/mL + β-glucosidase (Novozyme 188) 0.01 mg/mL
Procedure, shortened: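 Hydrothermally treated rice straw (180 °C, 20 min, 10 MPa; solid fraction) suspended at 5 wt % in 50 mM acetate buffer pH 5.2, hydrolysed 24 h at 50 °C. Enzymes: T. reesei culture-solution cellulase 1.0 mg/mL, mutant or wild-type endoglucanase 0.1 mg/mL, β-glucosidase 0.01 mg/mL; glucose generated measured.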

[9] = Saccharification of lignocellulose 1 with Trichoderma reesei culture solution and endoglucanase; assay type: biochemical, Rice straw; settings: Lignocellulose 1, 24 hours; cellulase 1.0 mg/mL + endoglucanase 0.1 mg/mL + β-glucosidase (Novozyme 188) 0.01 mg/mL
Procedure, shortened: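 Substrate was liquid-ammonia-treated rice straw (1 h, 150 °C), suspended at 5 wt % in 50 mM acetate buffer pH 5.2 and hydrolysed for 24 h at 50 °C. Enzymes: T. reesei culture solution 1.0 mg/mL, mutant or wild-type endoglucanase 0.1 mg/mL, β-glucosidase 0.01 mg/mL. Glucose released was measured.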

Molecule | Concentration of glucose generated, Culture solution + Mutant [1] | Relative activity [2] | Relative activity to degrade phosphoric acid swollen cellulose ([3]; ferulic acid 0 mM) | Relative activity to degrade phosphoric acid swollen cellulose ([3]; ferulic acid 5 mM) | Relative activity to degrade phosphoric acid swollen cellulose ([3]; ferulic acid 10 mM) | Relative activity to degrade phosphoric acid swollen cellulose ([3]; ferulic acid 15 mM) | Relative activity to degrade phosphoric acid swollen cellulose ([4]; vanillin 0 mM) | Relative activity to degrade phosphoric acid swollen cellulose ([4]; vanillin 5 mM) | Relative activity to degrade phosphoric acid swollen cellulose ([4]; vanillin 10 mM) | Relative activity to degrade phosphoric acid swollen cellulose ([4]; vanillin 15 mM) | Concentration of glucose generated, Celluclast + Mutant [5] | Concentration of glucose generated, Celluclast + Mutant [6] | Concentration of glucose generated, Celluclast + Mutant [7] | Concentration of glucose generated, Culture solution + Mutant [8] | Concentration of glucose generated, Culture solution + Mutant [9] | further results
B1 | 12 g/L | 100% | 100% | 100% | 100% | 95% | 100% | 100% | 100% | 95% | 15 g/L | 15 g/L | 15 g/L | 12 g/L | 12 g/L | 
B2 |  | 100% | 100% | 60% | 60% | 55% | 100% | 50% | 45% | 40% |  |  |  |  |  | Concentration of glucose generated, Culture solution + Wild-type [1]: 8 g/L; Concentration of glucose generated, Celluclast + Wild-type [5]: 11 g/L; Concentration of glucose generated, Celluclast + Wild-type [6]: 11 g/L; Concentration of glucose generated, Celluclast + Wild-type [7]: 11 g/L; Concentration of glucose generated, Culture solution + Wild-type [8]: 8 g/L; Concentration of glucose generated, Culture solution + Wild-type [9]: 8 g/L
B3 | 13 g/L | 100% | 100% | 95% | 90% | 90% | 100% | 95% | 90% | 90% | 16 g/L | 14 g/L | 16 g/L | 11 g/L | 13 g/L | 
